From patent US20230330254A1 (Regeneron, published 2023)
Read-outs that look alike come from different tables or passages of the source.

T1: full-length human gastric inhibitory polypeptide receptor on HEK293/CRE-Luc/hGIPR cells (human, UniProt P48546 22-466)
T1 sequence (looked up): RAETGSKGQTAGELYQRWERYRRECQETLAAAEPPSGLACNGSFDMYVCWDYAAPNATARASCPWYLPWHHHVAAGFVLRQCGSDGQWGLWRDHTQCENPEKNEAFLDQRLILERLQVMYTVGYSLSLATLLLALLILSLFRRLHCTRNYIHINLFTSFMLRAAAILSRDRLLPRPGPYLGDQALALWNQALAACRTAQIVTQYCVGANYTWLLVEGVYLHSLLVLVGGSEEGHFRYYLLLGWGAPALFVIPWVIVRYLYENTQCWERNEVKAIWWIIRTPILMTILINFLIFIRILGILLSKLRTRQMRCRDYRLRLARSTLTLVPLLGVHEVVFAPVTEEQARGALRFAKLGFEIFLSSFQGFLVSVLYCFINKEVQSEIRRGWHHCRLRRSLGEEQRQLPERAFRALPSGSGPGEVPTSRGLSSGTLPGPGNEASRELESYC

T2: full-length human glucagon-like peptide 2 receptor on HEK293/CRE-Luc/hGLP2R cells (human, UniProt O95838 1-553)
T2 sequence (looked up): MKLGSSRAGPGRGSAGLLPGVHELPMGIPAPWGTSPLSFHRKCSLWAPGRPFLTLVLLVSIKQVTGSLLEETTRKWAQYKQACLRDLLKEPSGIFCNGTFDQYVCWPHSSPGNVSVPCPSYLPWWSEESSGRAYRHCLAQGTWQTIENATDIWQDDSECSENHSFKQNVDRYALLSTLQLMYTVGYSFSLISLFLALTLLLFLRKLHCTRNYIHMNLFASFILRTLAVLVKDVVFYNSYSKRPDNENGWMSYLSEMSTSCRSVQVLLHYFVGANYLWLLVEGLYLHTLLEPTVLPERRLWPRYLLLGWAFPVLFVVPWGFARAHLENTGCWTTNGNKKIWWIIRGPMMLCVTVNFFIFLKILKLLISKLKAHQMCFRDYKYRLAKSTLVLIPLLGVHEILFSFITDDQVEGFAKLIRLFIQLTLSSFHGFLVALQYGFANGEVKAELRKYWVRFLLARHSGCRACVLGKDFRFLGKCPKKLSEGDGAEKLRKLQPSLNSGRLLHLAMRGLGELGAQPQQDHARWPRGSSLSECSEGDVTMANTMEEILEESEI

T3: full-length mouse GLP1R on HEK293/CRE-Luc/mGLP1R cells (mouse, UniProt O35659 22-463)
T3 construct: whole, on cells
T3 sequence (looked up): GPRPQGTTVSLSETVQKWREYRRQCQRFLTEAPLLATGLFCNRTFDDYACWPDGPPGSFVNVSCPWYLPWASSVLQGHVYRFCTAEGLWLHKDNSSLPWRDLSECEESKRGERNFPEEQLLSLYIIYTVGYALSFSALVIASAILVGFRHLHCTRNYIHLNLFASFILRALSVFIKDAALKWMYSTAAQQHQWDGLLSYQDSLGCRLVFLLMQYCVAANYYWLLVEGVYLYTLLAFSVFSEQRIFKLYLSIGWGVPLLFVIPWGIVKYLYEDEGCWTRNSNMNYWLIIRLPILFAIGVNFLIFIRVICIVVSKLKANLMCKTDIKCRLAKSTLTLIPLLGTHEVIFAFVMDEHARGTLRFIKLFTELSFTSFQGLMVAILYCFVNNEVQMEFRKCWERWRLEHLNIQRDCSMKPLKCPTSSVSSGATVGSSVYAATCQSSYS


Assays:
[1] = molecular target: T4, full-length cynomolgus GLP1R on HEK293/CRE-Luc/mfGLP1R cells (cynomolgus, UniProt F8V479 24-463); test: cell-based or functional assay
[2] = molecular target: T5, full-length human GLP1R on HEK293/CRE-Luc/hGLP1R cells (human, UniProt P43220 24-463); test: cell-based or functional assay
[3] = molecular target: T1, full-length human gastric inhibitory …; test: cell-based or functional assay
[4] = molecular target: T6, full-length human glucagon receptor on HEK293/CRE-Luc/hGCGR cells (human, UniProt P47871 26-477); test: cell-based or functional assay
T6 sequence (P47871 26-477): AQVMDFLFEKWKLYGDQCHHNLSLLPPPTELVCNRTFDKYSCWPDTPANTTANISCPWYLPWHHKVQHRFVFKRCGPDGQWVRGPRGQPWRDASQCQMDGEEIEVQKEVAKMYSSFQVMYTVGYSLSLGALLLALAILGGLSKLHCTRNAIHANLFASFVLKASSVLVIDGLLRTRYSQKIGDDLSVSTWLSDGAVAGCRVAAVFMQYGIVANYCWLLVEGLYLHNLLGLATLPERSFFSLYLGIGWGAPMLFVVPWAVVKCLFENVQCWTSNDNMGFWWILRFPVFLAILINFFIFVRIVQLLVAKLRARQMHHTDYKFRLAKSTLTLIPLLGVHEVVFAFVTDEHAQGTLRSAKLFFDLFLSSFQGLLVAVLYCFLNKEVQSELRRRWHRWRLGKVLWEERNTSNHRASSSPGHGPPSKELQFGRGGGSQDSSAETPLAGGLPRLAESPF

[5] = molecular target: T2, full-length human glucagon-like peptide …; test: cell-based or functional assay
[6] = molecular target: T5, full-length human GLP1R on …; test: flow cytometry, hGLP1R cells
[7] = molecular target: T4, full-length cynomolgus GLP1R on …; test: cell-based or functional assay; remark: listed apart in the source
[8] = molecular target: T5, full-length human GLP1R on …; test: cell-based or functional assay; remark: listed apart in the source
[9] = molecular target: T1, full-length human gastric inhibitory …; test: cell-based or functional assay; remark: listed apart in the source
[10] = molecular target: T6, full-length human glucagon receptor on …; test: cell-based or functional assay; remark: listed apart in the source
[11] = molecular target: T2, full-length human glucagon-like peptide …; test: cell-based or functional assay; remark: listed apart in the source
[12] = molecular target: T7, N-terminal ectodomain of human GLP1R expressed with a myc-myc hexahistidine tag (human, UniProt P43220 24-145, limits assumed); test: SPR, captured via anti-hFc, 25 C
T7 construct: extracellular domain; also called hGLP1R-MMH; hGLP1R.mmh
T7 sequence (P43220 24-145 limits assumed): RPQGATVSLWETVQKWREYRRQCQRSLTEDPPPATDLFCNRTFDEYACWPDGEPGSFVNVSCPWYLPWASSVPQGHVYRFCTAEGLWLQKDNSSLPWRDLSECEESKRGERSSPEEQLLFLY

[13] = molecular target: T5, full-length human GLP1R on …; test: cell-based or functional assay; remark: listed apart in the source
[14] = molecular target: T4, full-length cynomolgus GLP1R on …; test: flow cytometry, mfGLP1R cells
[15] = molecular target: T5, full-length human GLP1R on …; test: flow cytometry, hGLP1R cells; remark: listed apart in the source
[16] = molecular target: T3, full-length mouse GLP1R on …; test: flow cytometry, mGLP1R cells
[17] = molecular target: T4, full-length cynomolgus GLP1R on …; test: flow cytometry, mfGLP1R cells; remark: listed apart in the source
[18] = molecular target: T5, full-length human GLP1R on …; test: cell-based or functional assay; remark: listed apart in the source
[19] = molecular target: human GLP1R on PathHunter eXpress GLP1R CHO-K1 b-Arrestin GPCR cells (human, UniProt P43220 24-463); test: cell-based or functional assay
[20] = molecular target: Myc-tagged full length human GLP1R on HEK293/Myc-hGLP1R/Cre-Luc cells (human, UniProt P43220 24-463); test: cell-based or functional assay
[21] = molecular target: T5, full-length human GLP1R on …; test: cell-based or functional assay; remark: listed apart in the source
[22] = molecular target: T5, full-length human GLP1R on …; test: cell-based or functional assay; remark: listed apart in the source

Binder | CRE-luc EC50 [1] | CRE-luc EC50 [2] | CRE-luc EC50 [3] | CRE-luc EC50 [4] | CRE-luc EC50 [5] | CRE-luc EC50 [7] | CRE-luc EC50 [8] | CRE-luc EC50 [9] | CRE-luc EC50 [10] | CRE-luc EC50 [11] | CRE-luc EC50 [13] | CRE-luc Relative Potency (% M2361 EC50) [13] | CRE-luc Relative Signal:Noise (% M2361) [13] | CRE-luc S/N [13] | CRE-luc EC50 [18] | CRE-luc Emax (% GLP-1) [18] | b-arrestin 2 recruitment EC50 [19] | b-arrestin 2 recruitment Emax (% GLP-1) [19] | also measured
REGN7990-M3190 (antibody, human IgG4 S228P, kappa, V domains shown, linker-payload M3190 (LP11) on Gln 3 of the N-terminal Q-tag LLQGSG, antibody-tethered drug conjugate; also called REGN7990 ATDC; anti-GLP1R mAb3-LP11) VH: not shown VL: DIQMTQSPSSVSASVGDRVTITCRASQGINSWLAWYQQKPGKAPKLLIYAASSLQSGVPSRFSGSGSGTDFTLTISSLQPEDFATYYCHQADSFPYTFGQGTKLEIKR | 77.2 pM | 72.4 pM | > 200 nM | > 200 nM | > 200 nM | 257 pM | 63.7 pM | > 30 nM | > 30 nM | > 30 nM | 60.1 pM | 27% | 135% | 86.9 fold | 236 pM | 90.9% | 17.2 nM | 103% | EC50 [6]: 9.81 nM; Flow S/N [6]: 117 fold; 90 nM hGLP1R.mmh Bound (RU) [12]: 22.8 RU; Kd [12]: 2.01 nM; koff [12]: 0.000785 s⁻¹; kon [12]: 390000 M⁻¹ s⁻¹; t1/2 [12]: 14.7 min; EC50 [14]: 29.9 nM; Flow S/N [14]: 486 fold; EC50 [15]: 30.5 nM; Flow S/N [15]: 231 fold; EC50 [16]: 91.5 nM; Flow S/N [16]: 29.3 fold; EC50 [17]: 4.79 nM; Flow S/N [17]: 103 fold
XXGTXTSDXX (CapAib-E*-G-T-F*-T-S-D-AA2-AA1: CapAib = 3-((2-(1H-imidazol-5-yl)ethyl)amino)-2,2-dimethyl-3-oxopropanoic acid; E* = (S)-2-amino-3-(2H-tetrazol-5-yl)propanoic acid; F* = (S)-2-amino-3-(2-fluorophenyl)-2-methylpropanoic acid; AA2 = biphenylalanine derivative carrying the amino-PEG8-triazole linker; AA1 = (S)-2-amino-5-(3,5-dimethylphenyl)pentanamide) [GLP1R agonist linker-payload LP11 (NH2-PEG8-triazole-P8)] | 46.3 pM | 25.8 pM | > 200 nM | > 200 nM | > 200 nM | 202 pM | 60.1 pM | > 30 nM | > 30 nM | > 30 nM | 36.9 pM | 44% | 96.4% | 62 fold | 16.8 pM | 93.9% | 2.48 nM | 108% | CRE-luc EC50 [20]: 16 pM; cAMP EC50 [21]: 0.318 nM; CRE-luc EC50 (experiment A) [22]: 16.1 pM; CRE-luc Relative Potency (% P8 EC50) (experiment A) [22]: 33.1%; CRE-luc S/N (experiment A) [22]: 74.5 fold
